For test [1], the target named is T1, human PD-1 expressed at the cell surface (human, UniProt Q15116 25-288).
T1 construct: whole, on cells; also called hPD-1; CHO hPD-1 cells
Description: flow cytometry blocking assay on CHO/PD-1 cells: antibody first, then FITC-labeled PD-L2 fusion protein as the blocked ligand, MFI. Here is the method:
(§1) PD-1 expressing CHO cells were suspended in FACS buffer (PBS with 4% fetal calf serum). […] Flow cytometric analyses were performed using a FACScan flowcytometer (Becton Dickinson, San Jose, Calif.).
(A flow cytometer gives signals particle by particle.)

Test [2] has as its target T1, human PD-1 expressed at the cell surface. Kind of test: flow cytometry on CHO cells transfected with human PD-1, FITC-labeled anti-human IgG, MFI. As for the experimental part: (§2) Activated human T-cells, monkey peripheral blood mononuclear cells (PBMC), and CHO cells transfected with PD-1 were each tested for antibody binding. Human T cells and cynomolgous PBMC were activated by […] to induce PD-1 expression on T cells prior to binding with a human anti-PD-1 monoclonal antibody. […] The cells were washed and binding was detected with a FITC-labeled anti-human IgG Ab. Flow cytometric analyses were performed using a FACScan flow cytometry (Becton Dickinson, San Jose, Calif.).

Test [3] has as its target T2, ICOS fusion protein (R&D Biosystems) (human, UniProt Q9Y6W8 21-141).
T2 sequence (looked up): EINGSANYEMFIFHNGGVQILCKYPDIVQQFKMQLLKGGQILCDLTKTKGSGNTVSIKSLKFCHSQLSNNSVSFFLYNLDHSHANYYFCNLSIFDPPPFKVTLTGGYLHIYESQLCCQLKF
Description: ELISA on ICOS fusion protein, goat anti-human IgG (kappa) HRP. Here is the method: (§3) A comparison of the binding of anti-PD-1 antibodies to CD28 family members was performed by standard ELISA using four different CD28 family members to examine the specificity of binding for PD-1.
(§4) Standard ELISA procedures were performed. The anti-PD-1 human monoclonal antibodies were added at a concentration of 20 μg/ml. Goat-anti-human IgG (kappa chain-specific) polyclonal antibody conjugated with horseradish peroxidase (HRP) was used as secondary antibody.
For orientation: An ELISA detects its analyte on a solid surface through an enzyme-linked reagent.

Test [4] has as its target T3, CD28 fusion protein (R&D Biosystems) (human, UniProt P10747 19-152). Description: ELISA on CD28 fusion protein, goat anti-human IgG (kappa) HRP. Here is the method:
as §3, §4

The target in test [5] is T4, purified recombinant human PD-1 fusion protein (human, UniProt Q15116 25-170).
T4 construct: extracellular domain; Made in CHO cells; amine-coupled to a CM5 chip for Biacore
Kind of test: Biacore SPR; PD-1 fusion protein on CM5 chip, antibody at 267 nM. Here is the method:
Anti-PD-1 antibodies were characterized for affinities and binding kinetics by Biacore analysis (Biacore AB, Uppsala, Sweden). Purified recombinant human PD-1 fusion protein was covalently linked to a CM5 chip (carboxy methyl dextran coated chip) via primary amines, using standard amine coupling chemistry and kit provided by Biacore. Binding was measured by flowing the antibodies in HBS EP buffer (provided by Biacore AB) at a concentration of 267 nM at a low rate of 50 μl/min. The antigen-antibody association kinetics was followed for 3 minutes and the dissociation kinetics was followed for 7 minutes. The association and dissociation curves were fit to a 1:1 Langmuir binding model using BIAevaluation software (Biacore AB). To minimize the effects of avidity in the estimation of the binding constants, only the initial segment of data corresponding to association and dissociation phases were used for fitting.
(Surface plasmon resonance follows binding to a sensor surface in real time, without labels.)

In test [6] the target is T5, CTLA-4 fusion protein (R&D Biosystems) (human, UniProt P16410 37-162).
T5 sequence (looked up): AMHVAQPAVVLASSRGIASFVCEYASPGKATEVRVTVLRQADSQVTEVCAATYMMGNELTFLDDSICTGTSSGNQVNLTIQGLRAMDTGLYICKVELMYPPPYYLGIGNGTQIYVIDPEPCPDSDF
Kind of test: ELISA on CTLA-4 fusion protein, goat anti-human IgG (kappa) HRP. Here is the method:
as §3, §4

Test [7] has as its target T3, CD28 fusion protein (R&D Biosystems). Kind of test: standard ELISA on fusion proteins. As for the experimental part: as §3, §4
Test [8] deals with T2, ICOS fusion protein (R&D Biosystems). Kind of test: standard ELISA on fusion proteins. Here is the method: as §3, §4
For test [9], the target named is T5, CTLA-4 fusion protein (R&D Biosystems). Description: standard ELISA on fusion proteins. Here is the method:
as §3, §4

In test [10] the target is T1, human PD-1 expressed at the cell surface. Kind of test: flow cytometry on activated human T cells, FITC-labeled anti-human IgG, MFI. As for the experimental part: as §2
Test [11] has as its target T6, cynomolgus monkey cell surface PD-1 (cynomolgus monkey, UniProt B0LAJ3 25-288).
T6 construct: also called cynomolgous monkey PD-1
Description: flow cytometry on activated cynomolgus monkey PBMC, FITC-labeled anti-human IgG, MFI. Here is the method: as §2

The target of test [12] is T1, human PD-1 expressed at the cell surface. Kind of test: flow cytometry blocking assay on CHO/hPD-1 cells: antibody first, then FITC-labeled PD-L1 fusion protein as the blocked ligand, MFI. Here is the method:
as §1

Changes are numbered by the printed parent chain.

T4 sequence (Q15116 25-170): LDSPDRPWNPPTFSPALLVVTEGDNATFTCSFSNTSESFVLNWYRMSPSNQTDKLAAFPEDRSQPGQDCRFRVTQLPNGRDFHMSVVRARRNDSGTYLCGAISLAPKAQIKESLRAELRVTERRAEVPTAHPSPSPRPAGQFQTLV
T3 sequence (P10747 19-152): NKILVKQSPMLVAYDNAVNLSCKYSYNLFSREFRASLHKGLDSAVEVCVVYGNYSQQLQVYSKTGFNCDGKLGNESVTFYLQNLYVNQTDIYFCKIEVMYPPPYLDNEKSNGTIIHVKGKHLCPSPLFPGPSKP
T1 sequence (Q15116 25-288): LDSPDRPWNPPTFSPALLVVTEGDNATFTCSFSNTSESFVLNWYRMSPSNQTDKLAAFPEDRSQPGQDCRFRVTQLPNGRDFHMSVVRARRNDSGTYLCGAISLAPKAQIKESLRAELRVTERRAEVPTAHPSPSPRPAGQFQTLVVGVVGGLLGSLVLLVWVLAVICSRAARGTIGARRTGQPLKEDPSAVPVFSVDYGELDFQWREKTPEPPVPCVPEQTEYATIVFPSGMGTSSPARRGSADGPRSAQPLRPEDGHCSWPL
T6 sequence (B0LAJ3 entry or part of it limits assumed): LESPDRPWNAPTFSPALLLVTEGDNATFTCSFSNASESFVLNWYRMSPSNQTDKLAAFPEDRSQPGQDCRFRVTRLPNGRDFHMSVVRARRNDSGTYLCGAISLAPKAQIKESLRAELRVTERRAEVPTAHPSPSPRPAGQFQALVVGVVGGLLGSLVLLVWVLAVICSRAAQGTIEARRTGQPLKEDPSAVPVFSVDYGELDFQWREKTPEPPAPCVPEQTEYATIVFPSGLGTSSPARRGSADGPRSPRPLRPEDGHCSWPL

B1: anti-PD-1 human monoclonal antibody 4A11 (antibody, V domains shown)
VH: QLQLQESGPGLVKPSETLSLTCTVSGGSLSRSSFFWGWIRQPPGKGLEWIGSIYYSGSTYYNPSLKSRVTISVDTSKNQFSLKLSSVTAADTAVYYCVRDYDILTGDEDYWGQGTLVTVSS
VL: DIQMTQSPSSLSASVGDRVSITCRASQGISSWLAWYQQKPEKAPKSLIYAASNLRSGVPSRFSGSGSGTDFTLTISSLQPEDFATYYCQQYYSYPRTFGQGTKVEIK
notes: Fully human IgG with kappa light chain from a hybridoma
The EC50 (read off the curve) is the concentration needed to bring the measured effect to its halfway point. One may read the Kd as the concentration at which binding is half-saturated. As a reminder, the koff is a measure of how fast the partners let go of each other. By kon is commonly meant the second-order rate constant of association. With B1, in [1], the “IC50 (read off the curve)” value is about 8 nM. Besides, the half-maximal effective concentration (EC50 (read off the curve)) in test [2] is about 10 nM. Moreover, the binding result in test [3], in test [4] and in test [6] was “no binding (tested: 20 µg/ml)” in each case. Moreover, the Kd in [5] was determined as 0.13 nM. Further, in [5], the dissociation rate constant (koff) is 9.9e-06 s⁻¹. For the same molecule, the kon in test [5] amounted to 76000 M⁻¹ s⁻¹.

B2: anti-PD-1 human monoclonal antibody 5F4 (antibody, V domains shown)
VH: B1 VH with T23S, F34Y, G51A, Y54F, S58E, Y61F, K77R, V98A
VL: B1 VL with S20T, N53S, R55Q
notes: as for B1
B2: the binding result in test [7], in test [8] and in test [9] was “no binding (tested: 20 µg/ml)” each time.

B3: anti-PD-1 human monoclonal antibody 17D8 (antibody, V domains shown)
VH: QVQLVESGGDVVQPGGSLRLSCAASGVAFSNYGMHWVRQAPGKGLEWVAVIWYDGSNKYYADSVKGRFTISRDNSKNMLYLQMNSLRAEDTAMYYCARNDDYWGQGTLVTVSS
VL: EIVLTQSPATLSLSPGERATLSCRASQSVSSYLAWYQQKPGQAPRLIIYDASNRATGIPARFSGSGSGTDFTLTISSLEPEDFAVYYCQQRSNWPLTFGGGTKVEIK
notes: Fully human IgG with kappa light chain from a hybridoma (HuMab/KM mice)
In the case of B3, the “EC50 (read off the curve)” value was about 10 nM in test [2], about 2 nM in test [10] and about 3 nM in test [11]. The binding result in test [3], in test [4] and in test [6] was “no binding (tested: 20 µg/ml)” each time. The Kd in test [5] stood at 0.16 nM. Moreover, in test [5], the koff came to 4.5e-05 s⁻¹. Also, the on-rate (kon) in test [5] came out at 256000 M⁻¹ s⁻¹.

B4: anti-PD-1 human monoclonal antibody 4H1 (antibody, V domains shown)
VH: QVYLVESGGGVVQPGRSLRLSCAASGFTFSNYGMHWVRQAPGKGLEWVALIWYDGSNKYYADSVKGRFTISRDNSKNTLYLQMTSLRVEDTAVYYCASNVDHWGQGTLVTVSS
VL: B3 VL with I47L, R91S, L96R, G100Q
notes: as for B1
B4: the “EC50 (read off the curve)” value in test [2] is about 3 nM; in [10], about 0.6 nM; in test [11], about 0.9 nM. For the same molecule, the binding result in [3], in test [4] and in test [6] was “no binding (tested: 20 µg/ml)” throughout. The “IC50 (read off the curve)” value in test [12] is about 2 nM.

B5: anti-PD-1 human monoclonal antibody 5C4 (antibody, V domains shown)
VH: QVQLVESGGGVVQPGRSLRLDCKASGITFSNSGMHWVRQAPGKGLEWVAVIWYDGSKRYYADSVKGRFTISRDNSKNTLFLQMNSLRAEDTAVYYCATNDDYWGQGTLVTVSS
VL: B3 VL with I47L, R91S, L96R, G100Q
notes: Fully human IgG with kappa light chain from a hybridoma; also called 5C4-IgG1; 5C4-IgG4
For the molecule B5, the binding result in test [3] and in test [6] was “no binding (tested: 20 µg/ml)” each time. In test [11], the “EC50 (read off the curve)” value was about 1 nM.

B6: anti-PD-1 human monoclonal antibody 2D3 (antibody, V domains shown)
VH: QVQLVESGGDVVQPGRSLRLSCAASGLTFTNYGFHWVRQAPGKGLEWVAVIWYDGSKKYYADSVKGRFTISRDNSKNTLYLQMNNLRAEDTAVYYCATGDDYWGQGTLVTVSS
VL: B3 VL with I47L, A51T
notes: as for B1
As for B6, the “EC50 (read off the curve)” value in test [10] is about 0.7 nM; in [11] it was about 1 nM. Moreover, the binding result in [3], in test [4] and in test [6] was “no binding (tested: 20 µg/ml)” in each case. Moreover, in test [5], the equilibrium dissociation constant (Kd) is 1.2 nM. Besides, in [5], the koff came out at 0.000452 s⁻¹. For the same molecule, the kon in [5] came to 377000 M⁻¹ s⁻¹.

B7: anti-PD-1 human monoclonal antibody 7D3 (antibody, V domains shown)
VH: B6 VH with D10G, A23T, A24T, L27I, T30S, N31S, I70L, N74D, N85S, A97V
VL: B3 VL with I47L
notes: as for B1
For the molecule B7, the binding result in [7], in test [8] and in test [9] was “no binding (tested: 20 µg/ml)” in each case.

(Values after US20150165025A1 (ONO PHARMACEUTICAL, published 2015).)
